According to article doi:10.1101/2022.02.09.479746 (bioRxiv, 2022):

B1: MBP-DFCP1 112-415 (isolated GTPase domain), wild type (domain or fragment, human, UniProt Q9HBF4 112-415, looked up)
chain: NKRRHPVTVYNVSNLQESLEAEEMDEETKRKKMTEKVVSFLLVDENEEIQVTNEEDFIRKLDCKPDQHLKVVSIFGNTGDGKSHTLNHTFFYGREVFKTSPTQESCTVGVWAAYDPVHKVAVIDTEGLLGATVNLSQRTRLLLKVLAISDLVIYRTHADRLHNDLFKFLGDASEAYLKHFTKELKATTARCGLDVPLSTLGPAVIIFHETVHTQLLGSDHPSEVPEKLIQDRFRKLGRFPEAFSSIHYKGTRTYNPPTDFSGLRRALEQLLENNTTRSPRHPGVIFKALKALSDRFSGEIPDDQ
B2: MBP-DFCP1 112-415 R266Q (GTPase domain with the cancer-related mutation R266Q) (domain or fragment, human, UniProt Q9HBF4 112-415, looked up)
chain: NKRRHPVTVYNVSNLQESLEAEEMDEETKRKKMTEKVVSFLLVDENEEIQVTNEEDFIRKLDCKPDQHLKVVSIFGNTGDGKSHTLNHTFFYGREVFKTSPTQESCTVGVWAAYDPVHKVAVIDTEGLLGATVNLSQRTRLLLKVLAISDLVIYQTHADRLHNDLFKFLGDASEAYLKHFTKELKATTARCGLDVPLSTLGPAVIIFHETVHTQLLGSDHPSEVPEKLIQDRFRKLGRFPEAFSSIHYKGTRTYNPPTDFSGLRRALEQLLENNTTRSPRHPGVIFKALKALSDRFSGEIPDDQ
B3: full-length FLAG-DFCP1 (Double FYVE Domain Containing Protein 1) (natural protein, human, UniProt Q9HBF4 1-777, looked up)
chain: MSAQTSPAEKGLNPGLMCQESYACSGTDEAIFECDECCSLQCLRCEEELHRQERLRNHERIRLKPGHVPYCDLCKGLSGHLPGVRQRAIVRCQTCKINLCLECQKRTHSGGNKRRHPVTVYNVSNLQESLEAEEMDEETKRKKMTEKVVSFLLVDENEEIQVTNEEDFIRKLDCKPDQHLKVVSIFGNTGDGKSHTLNHTFFYGREVFKTSPTQESCTVGVWAAYDPVHKVAVIDTEGLLGATVNLSQRTRLLLKVLAISDLVIYRTHADRLHNDLFKFLGDASEAYLKHFTKELKATTARCGLDVPLSTLGPAVIIFHETVHTQLLGSDHPSEVPEKLIQDRFRKLGRFPEAFSSIHYKGTRTYNPPTDFSGLRRALEQLLENNTTRSPRHPGVIFKALKALSDRFSGEIPDDQMAHSSFFPDEYFTCSSLCLSCGVGCKKSMNHGKEGVPHEAKSRCRYSHQYDNRVYTCKACYERGEEVSVVPKTSASTDSPWMGLAKYAWSGYVIECPNCGVVYRSRQYWFGNQDPVDTVVRTEIVHVWPGTDGFLKDNNNAAQRLLDGMNFMAQSVSELSLGPTKAVTSWLTDQIAPAYWRPNSQILSCNKCATSFKDNDTKHHCRACGEGFCDSCSSKTRPVPERGWGPAPVRVCDNCYEARNVQLAVTEAQVDDEGGTLIARKVGEAVQNTLGAVVTAIDIPLGLVKDAARPAYWVPDHEILHCHNCRKEFSIKLSKHHCRACGQGFCDECSHDRRAVPSRGWDHPVRVCFNCNKKPGDL

Target: the molecule itself
Assay: SEC

| Protein | stoichiometry N |
| --- | --- |
| B1 | 2 |
| B2 | 2 |
| B3 | 2 |
